Test results published in patent publication US20150346192A1 (Sanofi, published 2015).

T1: CCCH-type zinc finger antiviral protein (rat)
T1 sequence (Q8K3Y6 2-776, looked up): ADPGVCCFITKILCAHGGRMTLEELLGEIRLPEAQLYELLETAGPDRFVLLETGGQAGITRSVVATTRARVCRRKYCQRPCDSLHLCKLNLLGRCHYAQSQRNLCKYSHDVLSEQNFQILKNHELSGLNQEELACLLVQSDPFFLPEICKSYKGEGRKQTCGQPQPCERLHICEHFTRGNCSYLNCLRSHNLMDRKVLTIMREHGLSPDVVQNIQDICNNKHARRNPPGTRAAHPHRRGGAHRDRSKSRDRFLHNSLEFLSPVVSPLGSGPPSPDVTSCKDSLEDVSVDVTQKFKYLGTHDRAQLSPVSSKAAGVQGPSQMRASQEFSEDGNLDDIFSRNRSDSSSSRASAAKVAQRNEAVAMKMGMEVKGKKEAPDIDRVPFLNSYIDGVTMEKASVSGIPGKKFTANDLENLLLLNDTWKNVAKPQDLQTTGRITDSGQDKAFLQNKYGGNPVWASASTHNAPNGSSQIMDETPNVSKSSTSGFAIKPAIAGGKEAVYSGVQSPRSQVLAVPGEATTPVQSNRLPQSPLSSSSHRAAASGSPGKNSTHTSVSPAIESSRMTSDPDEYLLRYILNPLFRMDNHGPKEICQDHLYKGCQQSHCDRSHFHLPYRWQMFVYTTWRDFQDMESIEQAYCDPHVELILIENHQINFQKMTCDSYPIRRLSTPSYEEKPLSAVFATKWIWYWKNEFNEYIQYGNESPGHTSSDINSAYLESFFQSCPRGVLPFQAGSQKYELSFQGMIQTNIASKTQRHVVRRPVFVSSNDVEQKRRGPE


Columns and labels:
rCG30986, isoform CRA_a = target: T2, rCG30986, isoform CRA_a (rat); test: IP of RBL-2H3 lysate on nickel beads, MS/MS ProtScore
T2 construct: Endogenous protein from RBL-2H3 (rat) lysate
Experimental: (§1) They were used to immunoprecipitate protein lysates from RBL-2H3 cells stimulated or not beforehand via the FcεRI. After the immunoprecipitations, the beads were washed in low stringency conditions in order to preserve low affinity bindings.
(§2) After digestion with trypsin, the bands were analysed by mass spectrometry MS/MS using the MALDI-TOF (matrix-assisted laser desorption/ionization time of flight) technique.
(§3) The Mass spectrometer which was used is composed of a laser which ionises previously digested peptides; an analyser which measures the mass/charge (m/z) ratios of the ionised peptides as a function of their flight time; and a detector which records the number of ions for each given m/z ratio. The obtained spectra of m/z ratios allow the identification of peptides and thus proteins present in the samples, by interrogating the Genebank rat database, as well as the mouse database for comparison (the mice Genebank data being more complete). A confidence index or ProtScore is attributed for each protein as a function of the number of identified peptides which are part of its sequence and of the nature of these peptides (composition, size). A ProtScore higher than 3 corresponds to 0.1% probability of identifying a false positive, in other words the probability that this protein is present is 99.9%.

CTP synthase = target: T3, CTP synthase (rat); test: as above
T3 construct: Endogenous protein from RBL-2H3 (rat) lysate
Experimental: as §1, §2, §3

[1] = target: T4, metastasis associated 1 family, member 2 (rat); test: as above
T4 construct: Endogenous protein from RBL-2H3 (rat) lysate
Experimental: as §1, §2, §3

[2] = target: T5, fragile X mental retardation 1 (rat); test: as above
T5 construct: Endogenous protein from RBL-2H3 (rat) lysate
Experimental: as §1, §2, §3

[3] = target: T1, CCCH-type zinc finger antiviral protein; test: as above
Experimental: as §1, §2, §3

[4] = target: T6, ATP-binding cassette sub-family F member 1 (rat, UniProt Q6MG08 1-839); test: as above
T6 construct: Endogenous protein from lysates of the rat mast cell line RBL-2H3; also called ABCF1; ABCF1 protein
Experimental: as §1, §2, §3

[5] = target: T7, guanine nucleotide binding protein-like 2 (rat); test: as above
T7 construct: Endogenous protein from RBL-2H3 (rat) lysate
Experimental: as §1, §2, §3

[6] = target: T8, lysine (K)-specific demethylase 1 (rat); test: as above
T8 construct: Endogenous protein from RBL-2H3 (rat) lysate
Experimental: as §1, §2, §3

[7] = target: T9, PREDICTED: similar to myosin IG (rat); test: IP of RBL-2H3 lysate on nickel beads, MS/MS ProtScore; 1st value
T9 construct: Endogenous protein from RBL-2H3 (rat) lysate
Experimental: as §1, §2, §3

[8] = target: T10, adaptor-related protein complex 2, alpha 1 subunit (rat); test: as above
T10 construct: Endogenous protein from RBL-2H3 (rat) lysate
Experimental: as §1, §2, §3

[9] = target: T11, kinesin family member 20A (rat); test: as above
T11 construct: Endogenous protein from RBL-2H3 (rat) lysate
Experimental: as §1, §2, §3

vesicle docking protein [10] = target: T12, vesicle docking protein (rat); test: as above
T12 construct: Endogenous protein from RBL-2H3 (rat) lysate; a separate GenBank entry from gi 9507177
Experimental: as §1, §2, §3

[11] = target: T9, PREDICTED: similar to myosin IG; test: IP of RBL-2H3 lysate on nickel beads, MS/MS ProtScore; 2nd value
Experimental: as §1, §2, §3

[12] = target: T10, adaptor-related protein complex 2, …; test: as above
Experimental: as §1, §2, §3

[13] = target: T11, kinesin family member 20A; test: as above
Experimental: as §1, §2, §3

vesicle docking protein [14] = target: T12, vesicle docking protein; test: as above
Experimental: as §1, §2, §3

T12 sequence (P41542 whole entry): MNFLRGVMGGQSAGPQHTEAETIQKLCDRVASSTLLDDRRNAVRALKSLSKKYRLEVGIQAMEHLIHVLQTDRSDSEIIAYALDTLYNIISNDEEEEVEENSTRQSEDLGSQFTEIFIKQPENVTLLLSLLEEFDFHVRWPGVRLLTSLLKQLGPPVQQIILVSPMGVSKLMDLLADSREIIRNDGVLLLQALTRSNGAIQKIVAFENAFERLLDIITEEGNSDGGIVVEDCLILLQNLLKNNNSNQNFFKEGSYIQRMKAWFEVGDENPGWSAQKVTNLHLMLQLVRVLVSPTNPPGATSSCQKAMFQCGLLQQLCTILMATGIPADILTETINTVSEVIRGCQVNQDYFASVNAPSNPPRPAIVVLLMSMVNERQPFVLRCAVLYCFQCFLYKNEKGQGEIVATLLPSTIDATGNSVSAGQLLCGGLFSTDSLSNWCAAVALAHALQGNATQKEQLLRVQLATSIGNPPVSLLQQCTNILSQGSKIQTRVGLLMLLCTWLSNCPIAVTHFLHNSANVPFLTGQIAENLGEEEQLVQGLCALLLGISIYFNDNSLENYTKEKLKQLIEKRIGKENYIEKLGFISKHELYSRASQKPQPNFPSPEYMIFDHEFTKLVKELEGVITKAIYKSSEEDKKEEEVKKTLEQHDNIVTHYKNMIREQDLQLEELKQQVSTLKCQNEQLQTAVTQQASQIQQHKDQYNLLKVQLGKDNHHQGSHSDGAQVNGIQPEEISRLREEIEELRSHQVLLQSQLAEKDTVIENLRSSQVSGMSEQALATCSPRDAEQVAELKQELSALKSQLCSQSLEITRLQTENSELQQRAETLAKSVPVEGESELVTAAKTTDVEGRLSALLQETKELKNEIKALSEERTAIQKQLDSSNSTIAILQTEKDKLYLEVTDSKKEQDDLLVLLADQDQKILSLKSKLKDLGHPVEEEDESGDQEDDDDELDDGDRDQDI
T6 sequence (Q6MG08 whole entry): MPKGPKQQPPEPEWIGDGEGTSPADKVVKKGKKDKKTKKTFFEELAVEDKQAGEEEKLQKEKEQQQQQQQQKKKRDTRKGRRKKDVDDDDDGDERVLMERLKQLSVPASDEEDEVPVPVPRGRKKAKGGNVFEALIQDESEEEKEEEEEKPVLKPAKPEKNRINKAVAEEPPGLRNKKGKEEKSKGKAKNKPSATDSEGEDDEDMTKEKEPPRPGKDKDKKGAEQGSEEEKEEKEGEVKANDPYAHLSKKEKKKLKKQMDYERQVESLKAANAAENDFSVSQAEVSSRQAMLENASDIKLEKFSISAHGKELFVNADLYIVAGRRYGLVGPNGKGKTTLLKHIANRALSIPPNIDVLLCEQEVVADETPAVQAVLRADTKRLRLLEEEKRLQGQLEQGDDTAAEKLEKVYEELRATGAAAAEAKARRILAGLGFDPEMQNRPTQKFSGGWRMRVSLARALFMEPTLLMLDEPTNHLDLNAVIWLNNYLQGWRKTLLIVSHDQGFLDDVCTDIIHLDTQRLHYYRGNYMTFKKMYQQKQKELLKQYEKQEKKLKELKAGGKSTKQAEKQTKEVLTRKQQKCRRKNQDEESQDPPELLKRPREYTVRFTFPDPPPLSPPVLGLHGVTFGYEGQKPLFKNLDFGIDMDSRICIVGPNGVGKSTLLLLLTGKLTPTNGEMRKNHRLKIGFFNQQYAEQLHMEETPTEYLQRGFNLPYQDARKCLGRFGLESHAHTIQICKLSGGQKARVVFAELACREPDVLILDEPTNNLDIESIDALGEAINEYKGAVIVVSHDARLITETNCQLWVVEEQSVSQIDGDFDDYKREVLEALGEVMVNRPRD

Row | Binder | Protscore IP (rCG30986, isoform CRA_a) | Protscore IP (CTP synthase) | Protscore IP [1] | Protscore IP [2] | Protscore IP [3] | Protscore IP [4] | Protscore IP [5] | Protscore IP [6] | Protscore IP [7] | Protscore IP [8] | Protscore IP [9] | Protscore IP (vesicle docking protein [10]) | Protscore IP [11] | Protscore IP [12] | Protscore IP [13] | Protscore IP (vesicle docking protein [14])
1 | scFv 3H2-1 (scFv, also called intracellular antibody 3H2-1; intrabody 3H2-1; not shown: C-terminal Myc tag and 6xHis tag from vector pET23NN) scFv: MAEVQLVESGGSLVKPGGSLRLSCAASGFTFSNYSMNWVRQAPGKGLEWISSISGSSRYIYYADFVKGRFTISRDNATNSLYLQMNSLRAEDTAVYYCVRPIAVSDYWGRGTLVTVSSGGGGSGGGGSGGGGSQSVLTQPASVSGSPGQSITISCAGTSSDVGGYNYVSWYQQHPGKAPKLMIYEDSKRPSGVSNRFSGSKSGNTASLTISGLQAEDEADYYCQTYDGSRAVFGGGTKLAVLGAAAEQKLISEEDLNGAA | 10 | 7 | 4 | 4 | 4 | 51 | 10 | 10 | – | – | – | – | – | – | – | –
2 | 5H4-VH (other, Single human-derived VH domain (truncated scFv, VH only) on the 13R4 framework; produced in E. coli, immobilised on nickel beads; also called 5H4-VH fragment; intracellular antibody 5H4-VH; not shown: C-terminal Myc tag and 6xHis tag from vector pET23NN) VH: MAEVQLVESGGSLVKPGGSLRLSCAASGFTFSNYSMNWVRQAPGKGLEWISSISGSSRYIYYADFVKGRFTISRDNATNSLYLQMNSLRAEDTAVYYCVRDGGLREGFDCWGRGTLVTVSSAAAEQKLISEEDLNGAA | – | – | – | – | – | – | – | – | 8 | 15 | 8 | 8 | 20 | 6 | 10 | 5
